Measured values taken from patent US20140220040A1 (ARCA BIOPHARMA, published 2014).

T1: Human LRP6-Fc (R&D Systems), recombinant human LRP6 containing the complete extracellular domain (human, UniProt O75581 20-1370)
T1 construct: Bought protein; also called hLRP6; Fc-antigen; not shown: Fc part of the bought fusion protein
T1 sequence: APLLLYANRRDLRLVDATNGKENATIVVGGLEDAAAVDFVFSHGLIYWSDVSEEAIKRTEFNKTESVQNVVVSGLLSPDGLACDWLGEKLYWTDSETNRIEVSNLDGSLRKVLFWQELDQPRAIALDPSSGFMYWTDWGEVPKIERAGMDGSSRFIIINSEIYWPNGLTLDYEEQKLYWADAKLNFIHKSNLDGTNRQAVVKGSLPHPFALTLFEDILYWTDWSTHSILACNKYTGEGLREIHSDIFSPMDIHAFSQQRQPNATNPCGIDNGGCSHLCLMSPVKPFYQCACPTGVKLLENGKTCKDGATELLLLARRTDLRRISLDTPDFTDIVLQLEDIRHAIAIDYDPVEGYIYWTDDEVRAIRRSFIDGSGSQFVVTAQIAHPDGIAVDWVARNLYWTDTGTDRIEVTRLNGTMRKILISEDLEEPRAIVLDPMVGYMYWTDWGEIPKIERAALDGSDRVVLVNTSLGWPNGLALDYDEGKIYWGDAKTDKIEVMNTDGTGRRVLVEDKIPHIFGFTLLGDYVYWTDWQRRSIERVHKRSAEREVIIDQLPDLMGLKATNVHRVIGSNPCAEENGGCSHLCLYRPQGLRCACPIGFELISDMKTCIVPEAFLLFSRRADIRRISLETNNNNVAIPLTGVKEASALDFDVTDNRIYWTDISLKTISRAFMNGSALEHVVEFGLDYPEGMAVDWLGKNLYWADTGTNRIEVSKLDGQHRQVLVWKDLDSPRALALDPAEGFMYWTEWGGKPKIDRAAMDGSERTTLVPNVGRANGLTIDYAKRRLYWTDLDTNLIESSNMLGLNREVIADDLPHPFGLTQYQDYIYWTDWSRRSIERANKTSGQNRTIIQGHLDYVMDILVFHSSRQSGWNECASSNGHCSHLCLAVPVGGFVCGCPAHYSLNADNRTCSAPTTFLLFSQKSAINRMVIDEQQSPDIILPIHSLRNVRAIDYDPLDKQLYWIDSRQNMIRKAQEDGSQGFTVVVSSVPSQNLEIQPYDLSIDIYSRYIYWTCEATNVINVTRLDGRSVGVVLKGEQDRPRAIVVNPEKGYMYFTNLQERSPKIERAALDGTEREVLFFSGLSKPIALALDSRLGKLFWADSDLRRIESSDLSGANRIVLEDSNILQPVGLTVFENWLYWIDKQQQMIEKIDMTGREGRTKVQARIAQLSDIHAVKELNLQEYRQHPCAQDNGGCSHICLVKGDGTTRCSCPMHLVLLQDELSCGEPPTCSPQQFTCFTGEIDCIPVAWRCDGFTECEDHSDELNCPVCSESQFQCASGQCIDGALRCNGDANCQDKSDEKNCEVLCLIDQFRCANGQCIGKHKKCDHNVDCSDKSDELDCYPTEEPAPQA


Target: T1, Human LRP6-Fc (R&D Systems), …
Assay: SPR (BIAcore), mAb captured on anti-mouse chip, Fc-antigen injected, 1:1 model
Description: Kinetic rate constants (kₐ and kd) were determined using surface plasmon resonance, and affinities (KD) were then calculated from the rate constants (kd/kₐ). Surface plasmon resonance was carried out on a BIAcore system (Biacore International AB, Uppsala, Sweden). Each murine anti-LRP6 mAb sample was diluted 100 fold and captured onto an anti-mouse sensor chip surface. The running buffer contained 10 mM HEPES, 150 mM NaCl, 0.005% Tween-20 and 0.1 mg/ml BSA. Following the capturing step, the Fc-antigen was injected at 45 nM as the highest concentration in a 3-fold dilution series. The association and dissociation phases were monitored for 8 and 60 minutes, respectively. The antigen response data were fit into a 1:1 interaction model.

Kd [nM]	koff [s⁻¹]	kon [M⁻¹ s⁻¹]	Binder
0.55	3.5e-05	63200	anti-LRP6 monoclonal antibody 77.2 (antibody, V domains shown, Murine hybridoma mAb, protein G purified; also called mAb 77.2; VH1/VL1) VH: QVQLQQSGAELAKPGASVKMSCKASGYTFTSYWMHWVKQRPGQGLEWIGYINPSTGYTEYNQNFRDKATLTADKSSSTANMQLSSLTSEDSAVYYCARTAQYYGSPRGYYAMDSWGQGTSVTVSS VL: DIVMTQAAFSNPVTLGTSASISCRSSKSLLHSNGITYLCWFLQKPGQSPQLLIYLMSNLASGVPDRFSSSGSGTDFTLRISRVEAEDVGVYFCAQNLDLPWTFGGGTKLEI
1.83	8.3e-05	45500	anti-LRP6 monoclonal antibody 1281.1 (antibody, V domains shown, Murine hybridoma mAb, protein G purified; also called VH19/VL19) VH: QVQLQQSGAELAKPGASVKISCKASGYTFTSYWMHWVKQRPGQGLEWIGYINPNTGYSEYNQKFRDKATLTANKSSSTANMQLSSLTSDDSAVYYCARTAQYYGSPRGYYAMDSWGQGTSVTVSS VL: DIVMTQAAFSNPVTLGTSASISCRSSKSLLHSNGITYLCWFLQKPGQSPQLLIYQMSNLASGVPDRFSSSGSGTDFTLRISRVEAEDVGVYFCAQNLDLPWTFGGGTKLEI
1.12	6.3e-05	56300	anti-LRP6 monoclonal antibody 931.1 (antibody, V domains shown, Murine hybridoma mAb, protein G purified; also called VH13/VL13) VH: DVNLVESGGGLVKLGGSLKLSCAASGFTFSSFYMSWVRQTPEKRLDLVATINTNGGSTYYSDTVKGRFTISRDNAKNTLYLQMNSLKSEDTALFYCVRQPYYGGTMDYWGQGTSVTVSS VL: DIVLTQSPATLSVTPGDRVSLSCRASQSINNNLHWYQQKSHESPRLLIKYASQSISGIPSRFSGSGSGTDFTLSINSVETEDFGMYFCQQTNNWPLTFGAGTKLEL
1.72	9.6e-05	55600	anti-LRP6 monoclonal antibody 213.7 (antibody, V domains shown, Murine hybridoma mAb, protein G purified; also called VH3/VL3) VH: DVKLVESGGGLVKVGGSLKLSCAASGFTFSSYYMSWVRQTPEKRLELVAVINTNGGSTYYSDTVKGRFTISRDNAKNTLYLQMSSLKSEDTALYYCSRQPYYGNPFDYWGQGTTLTVSS VL: DIVLTQSPATLSVTPGDSVSLSCRASQSISNNLHWYQQKSHESPRLLIKYVSQSISGIPSRFSGSGSGTDFTLSINSVETEDFGMYFCQQSNNWPLTFGAGTKLEL
6.55	4e-05	6110	anti-LRP6 monoclonal antibody 240.8 (antibody, V domains shown, Murine hybridoma mAb, protein G purified; also called VH4/VL4) VH: DVKLVESGGGLVKLGGSLKLSCAASGFTFSSYYMSWVRQTPEKRLELVAAINSNGGSTYYADTMKGRFTISRDNAKNTLYLQMISLKSEDTAFYYCASELAGYGTPFAYWGHGTLVTVSA VL: DIVLTQFPATLSVTPGDSVSLSCRASQSISSNLHWYQQTSHESPRLLIKYASQSISGIPSRFSGTGSGTDFTLSINSVETEDFGMYFCQQSNTWPLTFGAGTKLEL
2.33	7.4e-05	31600	anti-LRP6 monoclonal antibody 923.3 (antibody, V domains shown, Murine hybridoma mAb, protein G purified; also called VH12/VL12) VH: DVKLVESGGGLVKVGGSLKLSCAASGFTFSSYYMSWVRQTPEKRLELVAAININGGSTYYPDTVKGRFTISRDNAKNTLYLQMSSLKSEDTAFYYCASELAGYGTPFAYWGQGTLVTVSA VL: DIVLTQSPATLSVTPGDSVSLSCRASQSISNNLHWYQQKSHESPRLLIKYASQSISGIPSRFSGSGSGTDFTLSINSVETEDFGMYFCQQSNNWPLTFGAGTKLEL
1.08	5.7e-05	53200	anti-LRP6 monoclonal antibody 606.4 (antibody, V domains shown, Murine hybridoma mAb, protein G purified; also called VH9/VL9) VH: DVKLVESGGGLVKVGGSLKLSCAASGFTFSSYYMSWVRQTPEKRLELVAVINSNGGSTYYSETVKGRFTISRDNAKNTLYLQMSSLKSEDTALYYCSRQPYYGNPFDYWGQGTTLTVSS VL: DIVLTQSPATLSVTPGDSVSLSCRASQSISNNLHWYQQKSHESPRLLIKYVSQSISGIPSRFSGSGSGTDFTLSINSVETEDFGMYFCQQSNNWPLTFGAGTKLEL
18	8.47e-05	4700	anti-LRP6 monoclonal antibody 413.1 (antibody, V domains shown, Murine hybridoma mAb, protein G purified; also called VH5/VL5) VH: EIQLQQSGPELVKPGASVKVSCKASGYAFTSYNMYWVKQSHGKGLEWIGYIDPYNGGTDSNQNFKGKATLTVDKSSSTAFMHLNSLTSEDSAVYYCARGGMGLRRDHFDYWGQGTSLTVSS VL: QIVLTQSPAIMSASPGEKVTISCSANSSVRYMFWYQQKPGSFPKPWTYRTSNLASGVPARFSGSGSGTSYSLTISSMEAEDVATYYCQQYHSYPWTFGGGTKLEI
